We go through one molecule from paper PMC11911456, “Investigating synthetic lethality and PARP inhibitor resistance in pancreatic cancer through enantiomer differential activity” (Cell Death Discovery, 2025).

In this assay the target is T1, human RAD51 protein (human, UniProt Q06609-1 1-339).
T1 construct: RAD51 recombinase, human, NP_002866, bought from Creative Biomart; This is the RAD51 of the ELISA; source: bought: Creative Biomart
T1 sequence (looked up): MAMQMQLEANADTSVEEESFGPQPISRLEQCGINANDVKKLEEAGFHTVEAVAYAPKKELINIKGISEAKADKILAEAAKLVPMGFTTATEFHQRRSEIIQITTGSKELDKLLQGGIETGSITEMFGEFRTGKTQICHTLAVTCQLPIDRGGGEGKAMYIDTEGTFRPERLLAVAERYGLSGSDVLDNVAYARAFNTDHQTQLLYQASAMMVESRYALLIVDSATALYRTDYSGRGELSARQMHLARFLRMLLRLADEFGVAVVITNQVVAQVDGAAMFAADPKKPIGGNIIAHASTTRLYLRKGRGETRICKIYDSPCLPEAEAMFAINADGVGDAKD
The assay can be described thus: ELISA; competitive ELISA; BRC4-biotinylated peptide coated on 384-well plates, blocked with 1% BSA/PBS-T, overnight hybridisation with human RAD51; small-molecule compounds added 0.01-100 uM at constant 1% DMSO; detection with anti-RAD51 and HRP-secondary antibodies. The settings on record: both partners purified. (In an ELISA, binding on a coated surface is turned into a signal by an enzyme label.)

B1: BRC4-biotinylated peptide (peptide)
peptide: KEPTLLGFHTASGKKVKIAKESLDKVKNLFDEKEQ
modifications: biotin on the N-terminus
notes: BRC4 repeat of BRCA2; holds the FxxA motif (BRCA2 residues 1524-1527) and the LFDE motif (BRCA2 residues 1545-1548) as numbered in the introduction; also called biotinylated BRC4 peptide; BRC4 peptide; source: bought: Life Technologies
As for B1, the binding result is listed as “binds”.
